US20120077731A1 (Ablynx, published 2012)

Experiments:
Cyno IL-6R = target: T1, Cyno IL-6R (cynomolgus monkey, UniProt A0A2K5WN54 60-396); assay: Biacore T100, IL-6R captured by BN-12
T1 construct: also called cynomolgus monkey IL-6R; recombinant cyno sIL-6R
T1 sequence: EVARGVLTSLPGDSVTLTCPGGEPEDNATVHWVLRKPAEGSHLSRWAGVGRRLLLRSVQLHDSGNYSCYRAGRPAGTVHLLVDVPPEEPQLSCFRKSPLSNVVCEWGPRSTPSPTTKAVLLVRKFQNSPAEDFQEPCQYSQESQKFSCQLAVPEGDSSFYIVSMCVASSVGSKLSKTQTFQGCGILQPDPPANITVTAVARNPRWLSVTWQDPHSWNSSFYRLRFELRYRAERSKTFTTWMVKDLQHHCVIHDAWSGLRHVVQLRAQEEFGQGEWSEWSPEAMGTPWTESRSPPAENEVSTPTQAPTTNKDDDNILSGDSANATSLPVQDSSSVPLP

Human soluble IL-6R = target: T2, Human soluble IL-6R (human, UniProt P08887 20-358); assay: Biacore T100, IL-6R captured by BN-12
T2 construct: Soluble recombinant form; biotinylated in some assays; also called hIL-6R; human IL-6R
T2 sequence (looked up): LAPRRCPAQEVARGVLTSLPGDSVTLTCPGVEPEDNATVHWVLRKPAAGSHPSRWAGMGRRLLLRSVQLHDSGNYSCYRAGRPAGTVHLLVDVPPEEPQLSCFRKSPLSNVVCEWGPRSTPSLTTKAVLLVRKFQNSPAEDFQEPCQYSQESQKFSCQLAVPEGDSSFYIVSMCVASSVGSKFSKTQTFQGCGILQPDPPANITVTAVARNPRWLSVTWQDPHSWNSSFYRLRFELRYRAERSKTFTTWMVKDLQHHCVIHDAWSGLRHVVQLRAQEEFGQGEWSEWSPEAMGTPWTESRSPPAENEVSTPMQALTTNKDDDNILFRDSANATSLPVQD

[1] = target: T3, Human membrane IL-6R on cells (human, UniProt P08887 20-468); assay: flow cytometry, human PBL, lymphocytes donor 2
T3 construct: whole, on cells; also called cell-surface expressed human IL-6R
T3 sequence (looked up): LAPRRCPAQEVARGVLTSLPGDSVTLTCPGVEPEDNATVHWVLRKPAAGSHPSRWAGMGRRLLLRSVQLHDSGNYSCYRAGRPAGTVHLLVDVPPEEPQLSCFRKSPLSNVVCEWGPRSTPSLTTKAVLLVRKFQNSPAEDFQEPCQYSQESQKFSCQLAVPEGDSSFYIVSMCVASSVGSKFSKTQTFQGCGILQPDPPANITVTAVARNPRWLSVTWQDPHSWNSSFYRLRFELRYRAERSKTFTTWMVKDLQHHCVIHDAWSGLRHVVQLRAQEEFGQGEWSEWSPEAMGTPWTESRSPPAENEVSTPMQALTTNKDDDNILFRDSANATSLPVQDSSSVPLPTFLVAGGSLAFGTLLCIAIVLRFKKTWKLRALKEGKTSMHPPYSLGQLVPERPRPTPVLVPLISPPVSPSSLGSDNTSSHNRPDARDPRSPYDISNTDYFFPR
Description: (§1) The Nanobodies were incubated in EDTA-treated blood from 2 donors and bound Nanobody was detected by flow cytometry. Lymphocytes, monocytes and granulocytes were gated based on FSC/SSC properties (FIG. 40) and bound Nanobodies were detected in the PE channel.

[2] = target: T3, Human membrane IL-6R on cells; assay: flow cytometry, human PBL, granulocytes donor 2
Description: as §1

[3] = target: T3, Human membrane IL-6R on cells; assay: flow cytometry, CHO cells expressing human IL-6R, 4PL fit
[4] = target: T3, Human membrane IL-6R on cells; assay: flow cytometry, human PBL, lymphocytes donor 1
Description: as §1

Human plasma sIL-6R [5] = target: T4, Human plasma sIL-6R (human, UniProt P08887 20-355, limits assumed); assay: plasma potency ELISA, human plasma
T4 construct: also called plasma-derived human IL-6R
T4 sequence (looked up): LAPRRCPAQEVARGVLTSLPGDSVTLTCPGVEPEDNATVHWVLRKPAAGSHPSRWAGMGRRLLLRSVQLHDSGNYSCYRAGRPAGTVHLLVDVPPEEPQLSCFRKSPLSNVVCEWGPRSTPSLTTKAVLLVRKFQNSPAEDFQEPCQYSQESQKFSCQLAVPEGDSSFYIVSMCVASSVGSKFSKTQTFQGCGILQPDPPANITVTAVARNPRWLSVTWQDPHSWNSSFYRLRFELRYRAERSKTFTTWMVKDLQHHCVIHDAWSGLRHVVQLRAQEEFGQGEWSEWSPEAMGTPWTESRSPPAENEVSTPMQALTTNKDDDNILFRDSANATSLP

Human plasma sIL-6R [6] = target: T4, Human plasma sIL-6R; assay: plasma potency assay, human plasma, 2.4 nM IL6; blocked ligand IL-6
Description: (§2) All 5 affinity matured Nanobodies and the sequence optimized Nanobody were also tested in a plasma potency assay. […] TMB was used as substrate.

Cyno plasma sIL-6R = target: T5, Cyno plasma sIL-6R (cynomolgus monkey, UniProt A0A2K5WN54 60-396); assay: plasma potency assay, cyno plasma, 2.4 nM IL6; blocked ligand IL-6
T5 construct: also called cynomolgus sIL-6R
T5 sequence: T1 sequence
Description: as §2

[7] = target: T3, Human membrane IL-6R on cells; assay: flow cytometry, human PBL, monocytes donor 1
Description: as §1

Human plasma sIL-6R [8] = target: T4, Human plasma sIL-6R; assay: plasma potency ELISA, human plasma, high IL-6 (EC95)
[9] = target: T3, Human membrane IL-6R on cells; assay: cell-based or functional assay
[10] = target: T3, Human membrane IL-6R on cells; assay: flow cytometry, human PBL, granulocytes donor 1
Description: as §1

B1: PMP20A11 (VHH)
VHH: EVQLVESGGGLVQPGGSLRLSCAASGSVFKINVMAWYRQAPGKGRELVAGIISGGSTSYADSVKGRFTISRDNAKNTLYLQMNSLRPEDTAVYYCAFITTESDYDLGRRYWGQGTLVTVSS
notes: also called IL6R20A11; IL6R300; not shown: c-myc and (His)6 tags
Cyno IL-6R
  kon: 1e+06 M⁻¹ s⁻¹
Human soluble IL-6R
  kon: 1e+06 M⁻¹ s⁻¹
[1]
  EC50: 2.92 nM
[2]
  EC50: 5.61 nM
[3]
  EC50: 1.4 nM
[4]
  EC50: 3.65 nM
Human plasma sIL-6R [5]
  IC50: 0.198 nM
Human plasma sIL-6R [6]
  IC50: 0.09 nM
Cyno plasma sIL-6R
  IC50: 0.09 nM
[7]
  EC50: 3.62 nM
Human plasma sIL-6R [8]
  IC50: 0.356 nM
[9]
  IC50, TF1 assay: 0.4 nM
[10]
  EC50: 2.42 nM
